# Measurements reported in the supplement of paper PMC6757056.
# ± gives the standard deviation of the averaged measurements.
# B1: library; a variant is named by its letters at N, in order (parent)
# chain: GCUGUCACCGAGAAACUGUGAAGUAUAUCUUAAACCUGGGCACUUAAAAGAUAUAUGGAGUUAGUAGUGCAACCUGCUCGGUCUGAUGAGUCCNNNNNNGGACGAAACAGC
# Tests used:
# cyclic di-GMP [1] = variants of: B1; assay: FACS-Seq fitted mean relative fluorescence mCherry/BFP without ligand (log10 relative fluorescence); HEK293T; ligand: cyclic di-GMP (c-di-GMP-II aptamer); higher = higher reporter protein expression; conditions: ligand present: no
# Procedure, shortened: (§1)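 Fluorescence values are fitted normal means of bin counts along the mCherry/BFP axis. HEK293T libraries lentivirally carrying the ribozyme switch in an mCherry reporter, with an EF1α-BFP marker, were enriched, exposed to ligand or not for 48 h, and sorted into 6 bins. Genomic DNA per bin was PCR-amplified, barcoded and run on MiSeq. Means of log10(mCherry/BFP) were scaled to five spiked-in control ribozymes.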
# cyclic di-GMP [2] = variants of: B1; assay: normalized RNA/DNA level without ligand (relative to sTRSVctl = 100) (log10 (% of sTRSVctl)); HEK293T; ligand: cyclic di-GMP (c-di-GMP-II aptamer); higher = less ribozyme self-cleavage, higher mRNA level; conditions: reporter: mCherry (pCS4076), ligand present: no
# Method: (§2)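 Hammerhead (sTRSV) ribozyme switch libraries with a ligand aptamer grafted on stem I and a randomized N4-6 loop II, cloned into the 3' UTR of mCherry and transiently transfected into HEK293T cells; RNA-Seq 72 h post transfection with ligand added 1 h before transfection; RNA read count / plasmid DNA read count normalized to the non-cleaving sTRSVctl (x100), log10; sequences with >100 DNA reads. FACS-Seq: lentiviral library sorted into 6 bins after 48 h ligand, log-normal fit mean of mCherry/BFP scaled to controls. Printed sequences are partial switch sequences.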
# cyclic di-GMP [3] = variants of: B1; assay: FACS-Seq fitted mean relative fluorescence mCherry/BFP with ligand (log10 relative fluorescence); HEK293T; ligand: cyclic di-GMP (c-di-GMP-II aptamer); ligand concentration (+) FACS-Seq: 1 mM; higher = higher reporter protein expression; conditions: ligand present: yes
# Procedure, shortened: as §1
# cyclic di-GMP [4] = variants of: B1; assay: normalized RNA/DNA level with ligand (relative to sTRSVctl = 100) (log10 (% of sTRSVctl)); HEK293T; ligand: cyclic di-GMP (c-di-GMP-II aptamer); ligand concentration (+) RNA-Seq: 1 mM; higher = less ribozyme self-cleavage, higher mRNA level; conditions: reporter: mCherry (pCS4076), ligand present: yes
# Method: as §2
Variant,FACS-Seq fitted mean (log10) (cyclic di-GMP [1]),normalized RNA/DNA level without ligand (log10) (cyclic di-GMP [2]),FACS-Seq fitted mean (log10) (cyclic di-GMP [3]),normalized RNA/DNA level with ligand (log10) (cyclic di-GMP [4])
GCCCCA,-0.109 ± 0.025,1.72 ± 0.024,0.138 ± 0.041,1.86 ± 0.085
GCCCCU,0.163 ± 0.17,1.761 ± 0.0048,0.336 ± 0.019,1.89 ± 0.077
CCGCAC,-0.121 ± 0.13,1.6849 ± 0.0016,0.131 ± 0.16,1.85 ± 0.11
CCAUGC,0.318 ± 0.13,1.673 ± 0.0061,0.419 ± 0.012,1.82 ± 0.11
GCAGCU,-0.242 ± 0.076,1.65 ± 0.018,-0.0553 ± 0.039,1.78 ± 0.11
CCCCAU,-0.0362 ± 0.2,1.68 ± 0.022,0.163 ± 0.051,1.83 ± 0.11
CCCCAC,-0.891 ± 0.018,1.75 ± 0.033,-0.665 ± 0.018,1.88 ± 0.097
UCGAAA,-0.535 ± 0.0031,1.32 ± 0.069,-0.158 ± 0.043,1.58 ± 0.12
CCCUGC,-0.0175 ± 0.34,1.792 ± 0.0034,0.142 ± 0.079,1.9 ± 0.16
UCACCA,0.0707 ± 0.26,1.694 ± 0.0047,0.366 ± 0.022,1.84 ± 0.14
CCCGUC,-0.648 ± 0.28,1.73 ± 0.061,-0.317 ± 0.1,1.87 ± 0.16
CCCGUA,-0.351 ± 0.12,1.55 ± 0.067,-0.0502 ± 0.012,1.72 ± 0.055
CCCCUU,-0.25 ± 0.04,1.65 ± 0.019,0.125 ± 0.14,1.84 ± 0.12
CCCCUA,-0.244 ± 0.03,1.56 ± 0.054,0.111 ± 0.091,1.74 ± 0.093
CCCCUG,-0.147 ± 0.12,1.69 ± 0.045,0.154 ± 0.1,1.84 ± 0.097
ACAGUU,-0.579 ± 0.027,1.32 ± 0.13,-0.312 ± 0.09,1.5 ± 0.073
CCAUUG,-0.474 ± 0.062,1.28 ± 0.11,-0.134 ± 0.034,1.55 ± 0.093
